Source: doi:10.1101/713511

Key:
[1] = tested on: T1, Atto550-SERF1a (human), O75920-2; experiment: fluorescence anisotropy
T1 sequence: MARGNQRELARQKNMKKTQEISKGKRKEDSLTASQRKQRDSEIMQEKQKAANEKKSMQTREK

MOAG-4 (C. elegans) = experiment: fluorescence anisotropy

Substance | Kd [1] [nM] | Kd (MOAG-4 (C. elegans)) [nM]
tRNA (type X-SA) | 1100 | –
ACUGCUAGAGAUUUUCCACAU [Cy3-R21(-)] | – | 4790
